Laboratory results: patent US6218168A, “Process for preparing O-acetylserine, L-cysteine and L-cysteine-related products” (Consortium fur elektrochemische Inudstrie GmbH, priority 1995, dated 2001)

Legend:
[1] = system: Corynebacterium glutamicum ATCC21851; experiment: Cysteine production by fermentation using corynebacteria with pWST1-cysE plasmids; type: cell-based; conditions: allele on pWST1 plasmid; compared with cysEIV, cysEX, cysEXIV
Source text: The feedback-resistant cysE alleles, cysEIV, cysEX, cysEXI and cysEXIV (cf. Tab. 2 in Example 1), were cleaved out of their corresponding plasmids using the restriction enzymes BamHI and EcoRI (from Boehringer Mannheim) and each respective 1.15 kb-sized DNA fragment was purified through an agarose gel and isolated. The respective DNA fragment was rendered blunt-ended using the Klenow fragment of E. coli DNA polymerase I (from Boehringer Mannheim). The vector pWST1 was hydrolyzed with the restriction enzyme Smal (from Boehringer Mannheim) and ligated to the blunt-ended DNA fragment using T4 DNA ligase. The vector pWST1 is an E. coli/Corynebacterium shuttle vector and can replicate both in E. coli and in corynebacteria. The corynebacterial replicon of this vector originates from the Corynebacterium glutamicum strain ATCC 19223. The preparation of vector pWST1 is described in U.S. Pat. No. 4,965,197. The ligation mixture was used to transform the mutant JM15, which is auxotrophic for cysteine. The complementing plasmids were designated pWST1-cysEIV, pWST1-cysEX, pWST1-cysEXI and pWST1-cysEXIV in accordance with their inserted cysE alleles.
The pWST1-cysE plasmids were used to transform the Corynebacterium glutamicum ATCC21851. The transformation was carried out by electroporation using the technique described in detail in Liebl, W. et al., 1989, FEMS Microbiol. Letters, 65, 299-304. […]

[2] = target: serine acetyltransferase; experiment: Serine acetyltransferase enzyme activity test with and without L-cysteine (inhibitor constant Ki, specific activity); type: biochemical, E. coli; conditions: for Ki: inhibitor L-cysteine
How it was run: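 Spectrophotometric test with L-serine and acetyl-CoA, reaction started by enzyme, following absorbance decrease at 232 nm from thioester cleavage. Activity measured with and without varying L-cysteine to derive Ki; enzyme from S30 extracts (30,000 g, 4° C, 20 min) of E. coli strains.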

[3] = system: JM15attλ::cysE strains; experiment: Cysteine production in 1 L fermenter, chromosomally encoded cysE alleles; type: cell-based, E. coli; conditions: single chromosomal copy
Protocol: For the purpose of being integrated into the chromosomal attachment site (attλ), the cysE alleles cysEIV, cysEX and cysEXI were cloned into the plasmid pRS551 (Simons et al., 1987, Gene 53: 85-96). For this, each cysE allele was amplified by PCR from the corresponding cysE plasmid. The oligonucleotides which were used, i.e. cysE-fwl and cysE-revl, are described in Example 1. The amplification was carried out as described in Example 3. The resulting fragments were cleaved with EcoRI/BamHI, purified through an agarose gel and ligated into vector pRS551 which had been cleaved with EcoRI and BamHI. This afforded the vector pRS551-based recombinant plasmids pRScysEIV, X and XI.
A heterogeneous lambda lysate, which contained recombinant cysE allele-carrying λRS45 derivatives in addition to λRS45 phages, was produced in vivo by homologous recombination by means of preparing a plate lysate on a pRScysE-carrying recA^+ strain (e.g. YMC9, ATCC 3397) using the λRS45 phage (Simons et al., 1987, Gene 53: 85-96).
The cysE strain JM15, which was infected with the heterogeneous lambda lysate and subsequently plated on kanamycin-containing (25 mg/L) LB plates, was used for selecting for the recombinant RS45 derivatives. The lysogenic, kanamycin-resistant clones which were obtained were then tested for their ability to grow on minimal medium plates without cysteine. A clone which was in each case cysteine-prototrophic was selected and used for preparing a homogeneous cysE λ lysate (by means of UV induction, Simons et al., 1987, Gene 53: 85-96).
The JM15 stain was infected with these homogeneous cysE λ lysates which were obtained in each case. The resulting JM15attλ::cysE strains were cultured as described in Example 6. Instead of tetracycline, the respective media in each case contained 25 mg of kanamycin per L as the selection agent.

B1: cysEXI: double mutant Thr167->Ala167, Gly245->Ser245 (protein, UniProt P0A9D4 1-273, looked up, variant T167A G245S)
Serine acetyltransferase: MSCEELEIVWNNIKAEARTLADCEPMLASFYHATLLKHENLGSALSYMLANKLSSPIMPAIAIREVVEEAYAADPEMIASAACDIQAVRTRDPAVDKYSTPLLYLKGFHALQAYRIGHWLWNQGRRALAIFLQNQVSVTFQVDIHPAAKIGRGIMLDHATGIVVGEAAVIENDVSILQSVTLGGTGKSGGDRHPKIREGVMIGAGAKILGNIEVGRGAKIGAGSVVLQPVPPHTTAAGVPARIVSKPDSDKPSMDMDQHFNGINHTFEYGDGI
In the case of B1, the cysteine yields [1] is reported as “highest cysteine yields”, the Ki ([2]; Table 1a, 1 mM L-serine, 0.1 mM acetyl-CoA) is reported as 700 µM and the spec. act. ([2]; Table 1a, serine acetyltransferase activity) is reported as 0.117 µmol/min/mg. The Ki ([2]; Table 2, alleles from chemical mutagenesis) was 700 µM and the yields of cysteine [3] was 2.1 g/L.
